# In US20140336119A1 (INSTITUT PASTEUR, published 2014):
# How the values were obtained:
# [1] = molecular target: T1, Muc2 (human, glycosylated, secreted in colonic mucus) (human, UniProt Q02817 21-5289, limits assumed, native glycosylation, with sulfated oligosaccharides); assay: staining of PFA-fixed; FIG. 31 is titled 'Identification of Muc2 in neutrophile granules'
# T1 construct: Native secreted mucin in mucus extracts or tissue, not a purified recombinant protein; also called glycoprotein Muc2
# Protocol: FIG. 31. Identification of Muc2 in neutrophile granules. Human neutrophil (PMN) granule staining using Cy5-MUB40-1, Cy5-MUB40-2, Cy5-MUB40-3, Cy5-MUB40-4 peptides. Schematic description of the Cy5-conjugated peptides. PMN were purified from healthy donor blood samples and fixed in the presence of 4% PFA. Fluorescent staining of human colonic mucus was performed by the addition of 1 μg/mL of the Cy5-conjugated peptides (Green) with Dapi (1:100) (Blue) and Phalloidin-RRX (1:1000) (Red). Image acquisition was performed using a fluorescent confocal microscope (see Methods).
# [2] = molecular target: T1, Muc2 (human, glycosylated, secreted in …); assay: fluorescent staining of fixed human colonic mucus; MUB40 probes said to display the same properties as the MUB70 probe
# Protocol: FIG. 22. Schematic description of the Cy5-MUB40-1, Cy5-MUB40-2, Cy5-MUB40-3, Cy5-MUB40-4 peptides (SEQ ID NOS 62 to 65). Fluorescent staining of human colonic mucus was performed by the addition of 1 μg/mL of the corresponding Cy5-conjugated peptides with Phalloidin-RRX (1:100) on formol fixed, paraffin embedded samples. Image acquisition was performed using a fluorescent confocal microscope (see Methods).
# FIG. 23 Comparative staining analysis of human colonic goblet cells using Cy5-MUB70 and Cy5-MUB40-1. Fluorescent staining of human colonic mucus was performed by the addition of 1 μg/mL of the corresponding Cy5-conjugated peptides with Phalloidin-RRX (1:100) on formol fixed, paraffin embedded samples. Image acquisition was performed using a fluorescent confocal microscope (see Methods).
# [3] = molecular target: Muc5ac (human, in colonic mucus extract) (human, UniProt P98088 28-5654, limits assumed); assay: pulldown on avidin-agarose beads, dot blot immunodetection
# Protocol: (§1) Pulldown assays were performed in the presence of 600 μg biot-MUB₇₀ bound to 500 μL Avidin-agarose beads (Thermo Scientific) in a Phosphate Buffer pH=8 buffer for 1 h at 4° C. After 3 washes, 10 mg soluble human colonic mucus extract were incubated with the loaded beads for 2 h at 4° C. After 3 washes, beads were boiled in the presence of 1× Laemli buffer. As a negative control, Avidin-agarose beads were loaded with 15 μg biotin (Sigma-Aldrich) and processed using the same procedure. Experiments were performed on two independent occasions.
# (§2) In order to identify a MUB₇₀ ligand present in the soluble extracts of human colonic mucus, biot-MUB₇₀, a biotinylated form of MUB₇₀, was synthesized (see Methods) in order to perform pulldown assays. Biot-MUB₇₀ was incubated with avidin beads and further with human colonic mucus extracts (produced in vitro from differentiated HT-29 MTX cells, see Methods). Biotin only was used as a negative control. […] A dot blot assay was then performed, focusing on secreted mucins, which are the major components of colonic mucus. Muc2 was immunodectected in the eluted fraction, and not in the negative control, and Muc5ac, Muc5b or Muc6, all detected in the input were absent from the eluted fraction (FIG. 4A). […] Processing a chemical deglycosylation step on the soluble mucus extract (see Methods) prior to pulldown assay abolished the interaction between Muc2 and biot-MUB₇₀ (FIG. 4A). […] [12].
# [4] = molecular target: Muc6 (human, in colonic mucus extract) (human, UniProt Q6W4X9 23-2439, limits assumed); assay: as above
# Sequence of Muc6 (human, in colonic mucus extract) (Q6W4X9 23-2439 limits assumed): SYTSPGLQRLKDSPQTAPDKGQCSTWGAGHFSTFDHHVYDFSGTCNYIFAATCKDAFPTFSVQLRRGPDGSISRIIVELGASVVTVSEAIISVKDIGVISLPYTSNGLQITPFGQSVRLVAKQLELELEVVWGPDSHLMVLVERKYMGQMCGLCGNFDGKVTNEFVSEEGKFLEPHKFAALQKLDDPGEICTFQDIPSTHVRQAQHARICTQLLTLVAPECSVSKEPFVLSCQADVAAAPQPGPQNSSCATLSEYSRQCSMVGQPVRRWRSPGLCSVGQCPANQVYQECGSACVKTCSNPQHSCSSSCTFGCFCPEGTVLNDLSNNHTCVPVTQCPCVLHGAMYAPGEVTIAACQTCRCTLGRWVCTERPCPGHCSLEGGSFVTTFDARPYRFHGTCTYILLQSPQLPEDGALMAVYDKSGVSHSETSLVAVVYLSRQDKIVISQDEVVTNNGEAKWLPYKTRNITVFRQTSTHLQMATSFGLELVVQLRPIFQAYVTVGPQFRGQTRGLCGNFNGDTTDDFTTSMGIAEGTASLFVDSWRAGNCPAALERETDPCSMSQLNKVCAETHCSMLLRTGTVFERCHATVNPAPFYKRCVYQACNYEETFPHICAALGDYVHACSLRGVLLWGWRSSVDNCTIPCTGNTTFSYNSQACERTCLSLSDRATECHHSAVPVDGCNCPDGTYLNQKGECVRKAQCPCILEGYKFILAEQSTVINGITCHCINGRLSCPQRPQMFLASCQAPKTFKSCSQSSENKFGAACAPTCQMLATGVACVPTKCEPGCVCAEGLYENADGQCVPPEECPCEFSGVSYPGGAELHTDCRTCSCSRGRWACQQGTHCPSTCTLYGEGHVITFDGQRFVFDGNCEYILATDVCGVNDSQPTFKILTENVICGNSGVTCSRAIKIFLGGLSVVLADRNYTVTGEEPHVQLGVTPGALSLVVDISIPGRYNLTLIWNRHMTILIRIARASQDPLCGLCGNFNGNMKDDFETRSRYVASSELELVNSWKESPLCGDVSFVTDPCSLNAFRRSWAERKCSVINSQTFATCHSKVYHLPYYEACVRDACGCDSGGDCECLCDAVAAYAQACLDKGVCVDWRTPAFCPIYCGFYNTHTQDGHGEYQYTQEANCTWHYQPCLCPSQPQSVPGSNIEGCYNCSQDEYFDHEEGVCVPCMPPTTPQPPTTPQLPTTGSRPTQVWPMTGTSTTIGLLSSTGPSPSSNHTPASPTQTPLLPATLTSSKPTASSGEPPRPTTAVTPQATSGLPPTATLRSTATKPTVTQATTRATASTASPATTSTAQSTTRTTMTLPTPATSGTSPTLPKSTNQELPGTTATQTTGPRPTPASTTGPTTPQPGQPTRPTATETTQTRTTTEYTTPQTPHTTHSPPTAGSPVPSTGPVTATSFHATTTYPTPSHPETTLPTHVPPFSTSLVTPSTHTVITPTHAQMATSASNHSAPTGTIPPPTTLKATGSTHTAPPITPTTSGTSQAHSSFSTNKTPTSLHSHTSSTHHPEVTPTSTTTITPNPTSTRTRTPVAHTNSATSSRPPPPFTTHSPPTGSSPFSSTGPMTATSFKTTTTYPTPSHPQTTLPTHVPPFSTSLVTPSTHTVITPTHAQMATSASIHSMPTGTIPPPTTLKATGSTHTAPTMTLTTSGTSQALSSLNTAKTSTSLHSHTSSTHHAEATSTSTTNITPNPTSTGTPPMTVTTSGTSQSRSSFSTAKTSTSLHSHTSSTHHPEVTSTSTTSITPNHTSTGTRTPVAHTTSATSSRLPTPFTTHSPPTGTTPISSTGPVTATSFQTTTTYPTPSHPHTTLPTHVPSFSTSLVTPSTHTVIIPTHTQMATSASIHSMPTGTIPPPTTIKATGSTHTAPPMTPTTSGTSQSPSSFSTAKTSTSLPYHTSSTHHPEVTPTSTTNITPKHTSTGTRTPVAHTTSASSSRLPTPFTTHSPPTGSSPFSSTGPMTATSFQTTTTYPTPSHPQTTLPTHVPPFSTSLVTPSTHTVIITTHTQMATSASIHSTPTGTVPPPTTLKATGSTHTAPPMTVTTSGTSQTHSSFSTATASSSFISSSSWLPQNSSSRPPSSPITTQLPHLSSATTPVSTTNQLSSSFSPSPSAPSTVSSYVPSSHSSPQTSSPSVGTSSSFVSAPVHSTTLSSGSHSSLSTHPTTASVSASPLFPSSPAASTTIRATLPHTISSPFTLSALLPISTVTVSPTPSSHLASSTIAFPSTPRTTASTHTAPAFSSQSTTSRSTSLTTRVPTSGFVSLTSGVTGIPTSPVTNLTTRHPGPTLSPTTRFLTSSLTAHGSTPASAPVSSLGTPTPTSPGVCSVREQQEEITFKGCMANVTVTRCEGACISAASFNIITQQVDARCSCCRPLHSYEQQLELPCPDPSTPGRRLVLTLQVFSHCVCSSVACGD
# Protocol: as §1, §2
# [5] = molecular target: Muc5b (human, in colonic mucus extract) (human, UniProt Q9HC84 26-5762, limits assumed); assay: as above
# Protocol: as §1, §2
# [6] = molecular target: T2, Muc2 of mouse colonic mucus (mouse, UniProt Q80Z19 21-4576, limits assumed); assay: fluorescent staining of PFA-fixed mouse colon, confocal microscopy
# T2 construct: The experiment stained colonic mucus; also called murine Muc2
# Protocol: FIG. 11. Mucus staining using Cy5-MUB₇₀ on fixed tissues. (A) Guinea pig colon, (B) rabbit ileum and (C) mouse colon were fixed in PFA 4%. Immunofluorescent staining was performed using Cy5-MUB₇₀ (1 μg/mL) (blue). Actin is stained in red (Phall.-RRX), Muc2 is stained in green (α-Muc2). Observations were performed using a confocal microscope. Bar is 50 μm.
binder,measurement,setting,value
Ac-C(Cy5 maleimide)VHVQYIDGETDQMLRQDDLDGYTDETIPYSTAEGIKKFEG-NH2 (also called MUB40-Cy5#4; Cy5-labeled MUB40-4) [Cy5-MUB40-4],binding result,[1],binds
Ac-C(Cy5 maleimide)TAEGIKKFEGDGYELFKDNFPAGEKFDNDDTNDQFYTVIF-NH2 (also called MUB40-Cy5#1; Cy5-labeled MUB40-1) [Cy5-MUB40-1],binding result,[2],binds
Ac-C(Cy5 maleimide)DQMLRQDDLDGYTDETIPYSTAEGIKKFEGDGYELFKDNF-NH2 (also called MUB40-Cy5#3; Cy5-labeled MUB40-3) [Cy5-MUB40-3],binding result,[1],binds
"biot-MUB70 (biotinylated MUB70) (maleimide-PEG2-biotin on the added N-terminal Cys, Chemically synthesized; also called biotinylated derivative of MUB70) peptide: CVHVQYIDGETDQMLRQDDLDGYTDETIPYSTAEGIKKFEGDGYELFKDNFPAGEKFDNDDTNDQFYTVIF",binding result,[3],no binding
same,binding result,[4],no binding
same,binding result,[5],no binding
"Cy5-MUB70 (Cy5 mono maleimide on the added N-terminal Cys, Chemically synthesized; also called MUB70-Cy5; Cy5-labeled MUB) peptide: CVHVQYIDGETDQMLRQDDLDGYTDETIPYSTAEGIKKFEGDGYELFKDNFPAGEKFDNDDTNDQFYTVIF",binding result,[6],no binding (tested: 1 µg/mL)
Ac-C(Cy5 maleimide)GYTDETIPYSTAEGIKKFEGDGYELFKDNFPAGEKFDNDD-NH2 (also called MUB40-Cy5#2; Cy5-labeled MUB40-2) [Cy5-MUB40-2],binding result,[1],binds
